Holding throughout (assay type): biochemical, E. coli
Assay [1] deals with substrate 21-F (His6-tetraCys-X-MBP). The assay is described as follows: Fluorescence anisotropy proteolysis assay with substrate 21-F. The following applies: initial rate by fluorescence anisotropy, normalized to the rate of the protease with its preferred cognate substrate. An excerpt:
(§1) All protease substrates were expressed in E. coli Rosetta pLacI Rare to provide compensation for rare codons (see Kirienko et al. (2004) Biochemistry (Mosc) 69:527-535; available commercially from Novagen, a wholly-owned subsidiary of EMD Biosciences, Inc., Madison, Wis.). The expression was done in 2-L PET bottles (Millard et al. (2003) Protein Expr. Purif. 29:311-320). The protein purification followed typical IMAC purification procedures (see Sambrook & Russell, supra) including elution in an imidazole gradient from 0-350 mM. After SDS-PAGE analysis, appropriate fractions were pooled and desalted into 20 mM phosphate, pH 7.5, containing 100 mM NaCl and 0.3 mM TCEP. […]
(§2) Protease assays were conducted using a combination of 20 μM unlabeled and 40 nM labeled protease substrates unless noted otherwise. […] This decreased the amount of time between mixing and measurement to less than three minutes and allowed the fluorescence anisotropy measured at the first time point to closely approximate the anisotropy of the intact fusion protein. […]
(§3) Fluorescence anisotropy was measured using a Tecan 384 Ultra plate spectrofluorimeter. Excitation was at 485 nm (25 nm bandpass) and emission was measured at 525 nm (20 nm bandpass). […] See J. Lakowicz, “Principles of fluorescence spectroscopy,” Kluwer Academic/Plenum Publishers, New York, 1999. […]

Assay [2] relates to substrate 22-F (His6-tetraCys-X-MBP). The assay is described as follows: Fluorescence anisotropy proteolysis assay with substrate 22-F. The following applies: initial rate by fluorescence anisotropy, normalized to the rate of the protease with its preferred cognate substrate.
Description: as §1, §2, §3

The subject of assay [3] is substrate 23-F (His6-tetraCys-X-MBP). The assay is described as follows: Fluorescence anisotropy proteolysis assay with substrate 23-F. The following applies: for Relative rate of reaction, substrate 23F: initial rate by fluorescence anisotropy, normalized to the rate of the protease with its preferred cognate substrate.
Description: as §1, with “TCEP. Proteins were concentrated to a final concentration of 300-600 μM using centrifugal concentrators. Glycerol (50% v/v) was added to all protease substrates except 26-F and frozen at −20° C. The Arabidopsis targets At3g03410 (expressed from pVP14) and At3g16990 (expressed from pVP15) were flash frozen as drops in liquid nitrogen and stored at −80° C.” for “TCEP.”
as §2
(§4) Fluorescence anisotropy was measured using a Tecan 384 Ultra plate spectrofluorimeter. Excitation was at 485 nm (25 nm bandpass) and emission was measured at 525 nm (20 nm bandpass). […] The observed anisotropy is the sum of the anisotropy of the individual fluorescent components, or robs=Σfiri, where robs, is the observed anisotropy, fi is the fractional fluorescence intensity of component i, and ri is the anisotropy of component i. See J. Lakowicz, “Principles of fluorescence spectroscopy,” Kluwer Academic/Plenum Publishers, New York, 1999. […]

In assay [4] the test system is substrate 24-F (His6-tetraCys-X-MBP). The assay is described as follows: Fluorescence anisotropy proteolysis assay with substrate 24-F. As to conditions: initial rate by fluorescence anisotropy, normalized to the rate of the protease with its preferred cognate substrate.
Description: as §1, §2, §3

Assay [5] has as its system substrate 25-F (His6-tetraCys-X-MBP). The assay is described as follows: Fluorescence anisotropy proteolysis assay with substrate 25-F. As to conditions: initial rate by fluorescence anisotropy, normalized to the rate of the protease with its preferred cognate substrate.
Description: as §1, §2, §3

In assay [6] the test system is substrate 26-F (His6-tetraCys-X-MBP). The assay is described as follows: Fluorescence anisotropy proteolysis assay with substrate 26-F. The following applies: for Relative rate of reaction, substrate 26F: initial rate by fluorescence anisotropy, normalized to the rate of the protease with its preferred cognate substrate.
Description: as §1, with “TCEP. Proteins were concentrated to a final concentration of 300-600 μM using centrifugal concentrators. Glycerol (50% v/v) was added to all protease substrates except 26-F and frozen at −20° C. The Arabidopsis targets At3g03410 (expressed from pVP14) and At3g16990 (expressed from pVP15) were flash frozen as drops in liquid nitrogen and stored at −80° C.” for “TCEP.”
as §2, §4

In assay [7] the test system is substrate 21-F (His6-tetraCys-X-MBP). The assay is described as follows: SDS-PAGE analysis of proteolysis of substrate 21-F. As to conditions: incubated 16 h (overnight). As for the experimental part:
FIG. 22 is a photograph of a gel depicting SDS-PAGE analysis of protease substrates incubated with Factor Xa and TEV protease for 16 h. Lane M, molecular weight standards of 31 and 45 kDa. Lanes 1-5, Factor Xa with substrates 21-F, 22-F, 23-F, 24-F and 25-F, respectively. Lanes 6-10, trypsin with substrates 21-F, 22-F, 23-F, 24-F and 25-F, respectively. Lanes 11-14, TEV protease with substrates 21-F, 22-F, 23-F and 24-F, respectively.
The intensity of protein bands in SDS-PAGE gels was determined using Image J-brand software, version 1.30. This is a public domain program that can be obtained from the National Institutes of Health (Bethesda, Md.).
SDS-PAGE analysis with Coomassie staining was performed to further evaluate the predicted low rates of substrate dependent non-specific proteolysis.

B1: TEV: tobacco etch virus protease (protein)
chain: GESLFKGPRDYNPISSTICHLTNESDGHTTSLYGIGFGPFIITNKHLFRRNNGTLLVQSLHGVFKVKNTTTLQQHLIDGRDMIIIRMPKDFPPFPQKLKFREPQREERICLVTTNFQTKSMSSMVSDTSCTFPSSDGIFWKHWIQTKDGQCGSPLVSTRDGFIVGIHSASNFTNTNNYFTSVPKNFMELLTNQEAQQWVSGWRLNADSVLWGGHKVFMSKPEEPFQPVKEATQLMNELVYSQ
As for B1, the “Relative rate of reaction, substrate 21F” value in assay [1] turned out to be 0.01. Moreover, in assay [2], the “Relative rate of reaction, substrate 22F” value turned out to be 0.0. The “Relative rate of reaction, substrate 23F” value in assay [3] is recorded as −0.02. In addition, the “Relative rate of reaction, substrate 24F” value in assay [4] is recorded as −0.01. Also, in assay [5], the “Relative rate of reaction, substrate 25F” value is 0.0. The “Relative rate of reaction, substrate 26F” value in assay [6] turned out to be 1. In assay [6] (substrate 26-F, slope of initial rate versus protease concentration, errors two standard deviations), the Specific reaction rate is on record as 17.3±0.7 moles substrate proteolyzed per mole of protease per hour. For the same molecule, the “Proteolysis of substrate 21-F by SDS-PAGE with Coomassie staining” value in assay [7] is given as “minor amount of proteolysis”.

B2: Enterokinase: commercial protease used for removing fusion tags (protein, UniProt P98072 2-800; P98072 801-1035, looked up)
Enteropeptidase non-catalytic …: GSKRSVPSRHRSLTTYEVMFAVLFVILVALCAGLIAVSWLSIQGSVKDAAFGKSHEARGTLKIISGATYNPHLQDKLSVDFKVLAFDIQQMIDDIFQSSNLKNEYKNSRVLQFENGSIIVIFDLLFDQWVSDKNVKEELIQGIEANKSSQLVTFHIDLNSIDITASLENFSTISPATTSEKLTTSIPLATPGNVSIECPPDSRLCADALKCIAIDLFCDGELNCPDGSDEDNKTCATACDGRFLLTGSSGSFEALHYPKPSNNTSAVCRWIIRVNQGLSIQLNFDYFNTYYADVLNIYEGMGSSKILRASLWSNNPGIIRIFSNQVTATFLIQSDESDYIGFKVTYTAFNSKELNNYEKINCNFEDGFCFWIQDLNDDNEWERTQGSTFPPSTGPTFDHTFGNESGFYISTPTGPGGRRERVGLLTLPLDPTPEQACLSFWYYMYGENVYKLSINISSDQNMEKTIFQKEGNYGQNWNYGQVTLNETVEFKVSFYGFKNQILSDIALDDISLTYGICNVSVYPEPTLVPTPPPELPTDCGGPHDLWEPNTTFTSINFPNSYPNQAFCIWNLNAQKGKNIQLHFQEFDLENIADVVEIRDGEGDDSLFLAVYTGPGPVNDVFSTTNRMTVLFITDNMLAKQGFKANFTTGYGLGIPEPCKEDNFQCKDGECIPLVNLCDGFPHCKDGSDEAHCVRLFNGTTDSSGLVQFRIQSIWHVACAENWTTQISDDVCQLLGLGTGNSSVPTFSTGGGPYVNLNTAPNGSLILTPSQQCLEDSLILLQCNYKSCGKKLVTQEVSPK
Enteropeptidase catalytic …: IVGGSDSREGAWPWVVALYFDDQQVCGASLVSRDWLVSAAHCVYGRNMEPSKWKAVLGLHMASNLTSPQIETRLIDQIVINPHYNKRRKNNDIAMMHLEMKVNYTDYIQPICLPEENQVFPPGRICSIAGWGALIYQGSTADVLQEADVPLLSNEKCQQQMPEYNITENMVCAGYEAGGVDSCQGDSGGPLMCQENNRWLLAGVTSFGYQCALPNRPGVYARVPRFTEWIQSFLH
For the molecule B2, the “Relative rate of reaction, substrate 21F” value in assay [1] was determined as 0.5. Moreover, the “Relative rate of reaction, substrate 22F” value in assay [2] came to 1.3. Further, the “Relative rate of reaction, substrate 23F” value in assay [3] amounted to 1. In assay [3] (substrate 23-F, per supplier's reported activity unit), the Specific reaction rate is given as 0.130±0.007 nmole substrate proteolyzed per unit enzyme per hour. Also, the “Relative rate of reaction, substrate 24F” value in assay [4] stood at 0.2. Moreover, the “Relative rate of reaction, substrate 26F” value in assay [6] was determined as 1.

For the origin of these results see patent US20050227306A1, “Fluorescence polarization assay to detect protease cleavage” (priority 2003, published 2005).
